# B1: mouse monoclonal antibody clone 1A8 (anti-DEFA5) [modified: Fc glycosylation, mainly the G1F glycoform (intact ESI-MS)] [mouse] / peptide No. 57 of the overlapping library, DEFA5 amino acids 61-75 (ARATCYCRTGRCATR) [human] (parent complex)
# chain 1: QVQLQQSGAELVRPGASVKMSCKALGYTFFDYEMHWMKQTPVYGLEWIGAIHPGSGDTAYNQKFKGKATLTADKSSNTAYMELSSLTSEDSAVYYCTREGTVVAPFDYWGQGTTLTVSS
# chain 2: DVLMTQTPLSLPVSLGDQASISCRSSQSIVHSNGNTYLEWYLQKPGQSPKLLINKVSNRFSGVPDRFSGSGSGTDFTLKISRVEAEDLGVYYCFQGSYVPYTFGGGTKLEIK
# chain 3: ARATCYCRTGRCATR
# Variants of: B1
# Assay: indirect ELISA; parent: 2.2; read off a plot
row,Variant,response [OD450nm]
1,chain 3 ARATCACRTGRCATR [chain 3 Y6A],~1.9
2,chain 3 ARATCYCRTGRCAAR [chain 3 T14A],~1.7
3,chain 3 ARGTCYCRTGRCATR [chain 3 A3G],~1.8
4,chain 3 AAATCYCRTGRCATR [chain 3 R2A],~1.9
5,chain 3 ARATCYCRTGRAATR [chain 3 C12A],~0.95
6,chain 3 ARAACYCRTGRCATR [chain 3 T4A],~1.9
7,chain 3 ARATCYCRTARCATR [chain 3 G10A],~1.9
8,chain 3 ARATCYCATGRCATR [chain 3 R8A],~1.8
9,chain 3 ARATCYCRTGRCGTR [chain 3 A13G],~1.8
10,chain 3 ARATCYCRTGACATR [chain 3 R11A],~0.07
11,chain 3 ARATCYCRTGRCATA [chain 3 R15A],~2.2
12,chain 3 ARATAYCRTGRCATR [chain 3 C5A],~1.9
13,chain 3 ARATCYCRAGRCATR [chain 3 T9A],~1.7

# Variants of: B1
# Assay: indirect ELISA; parent: 2.6; read off a plot
row,Variant,response [OD450nm]
1,chain 3 ARATCACRTGRCATR [chain 3 Y6A],~1.8
2,chain 3 ARATCYCRTGRCAAR [chain 3 T14A],~2
3,chain 3 ARGTCYCRTGRCATR [chain 3 A3G],~1.8
4,chain 3 AAATCYCRTGRCATR [chain 3 R2A],~1.9
5,chain 3 ARATCYCRTGRAATR [chain 3 C12A],~1.1
6,chain 3 ARATCYARTGRCATR [chain 3 C7A],~1.2
7,chain 3 ARAACYCRTGRCATR [chain 3 T4A],~1.9
8,chain 3 ARATCYCRTARCATR [chain 3 G10A],~1.9
9,chain 3 ARATCYCATGRCATR [chain 3 R8A],~1.8
10,chain 3 ARATCYCRTGRCGTR [chain 3 A13G],~1.8
11,chain 3 ARATCYCRTGACATR [chain 3 R11A],~0.07
12,chain 3 ARATCYCRTGRCATA [chain 3 R15A],~2.6
13,chain 3 ARATAYCRTGRCATR [chain 3 C5A],~2
14,chain 3 ARATCYCRAGRCATR [chain 3 T9A],~1.9
